Reference: patent US20210024610A1 (Hoffmann-La Roche, published 2021)
Where two headings read alike, the source gives them in different places.

Tests used:
Experiment in all cases: cell-based or functional assay
[1] = biological target: T1, human 4-1BB expressed on cells (Jurkat-hu4-1BB-NFκB-luc2 reporter cells; human T cells in PBMC) (human, UniProt Q07011 24-255); set-up: unit not given beside the values
[2] = biological target: T1, human 4-1BB expressed on cells …
[3] = biological target: T1, human 4-1BB expressed on cells …; remark: listed apart in the source
[4] = biological target: T1, human 4-1BB expressed on cells …; remark: listed apart in the source

T1 sequence (Q07011 24-255): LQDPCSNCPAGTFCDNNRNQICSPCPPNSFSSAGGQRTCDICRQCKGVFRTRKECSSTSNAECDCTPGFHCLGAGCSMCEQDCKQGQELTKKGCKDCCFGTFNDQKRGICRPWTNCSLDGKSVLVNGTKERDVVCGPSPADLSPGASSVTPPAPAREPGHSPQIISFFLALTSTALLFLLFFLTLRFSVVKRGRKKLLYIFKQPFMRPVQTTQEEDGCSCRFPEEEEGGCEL

B1: anti-human 4-1BB clone 20H4.9 human IgG4 (antibody, V domains shown)
VH: QVQLQQWGAGLLKPSETLSLTCAVYGGSFSGYYWSWIRQSPEKGLEWIGEINHGGYVTYNPSLESRVTISVDTSKNQFSLKLSSVTAADTAVYYCARDYGPGNYDWYFDLWGRGTLVTVSS
VL: EIVLTQSPATLSLSPGERATLSCRASQSVSSYLAWYQQKPGQAPRLLIYDASNRATGIPARFSGSGSGTDFTLTISSLEPEDFAVYYCQQRSNWPPALTFCGGTKVEIKR
[1]
  AUC above background, PBMC activation assay, % proliferating CD4: 10
  AUC above background, PBMC activation assay, % proliferating CD8: 16
[2]
  EC50 of NFκB-activation-induced Luciferase activity, Jurkat-hu4-1BB-NFκB-luc2 reporter cells, with KPL-4 cells: 0.02 nM
  EC50 of NFκB-activation-induced Luciferase activity, Jurkat-hu4-1BB-NFκB-luc2 reporter cells, with NCI-N87 cells: 0.02 nM
  EC50 of NFκB-activation-induced Luciferase activity, Jurkat-hu4-1BB-NFκB-luc2 reporter cells, with SK-Br3 cells: 0.01 nM
[3]
  EC50 PBMC activation assay, % proliferating CD4, with NCI-N87 cells: 0.01 nM
  EC50 PBMC activation assay, % proliferating CD8, with NCI-N87 cells: ~0.03 nM
[4]
  EC50 of NFκB-activation-induced Luciferase activity, Jurkat-hu4-1BB-NFκB-luc2 reporter cells, with NCI-N87 cells: 0.14 nM
